assay: soluble on expression in E. coli; label from the status in PepcDB or PDB records

Sequence | soluble on expression in E. coli
MRLCHSIILFNSLISISICSKADDPALLVASEFKEHFNVEEKQLETVEELLIKMKKLAHSRSFKGREFGHDAVEDSKKEVAISTQQGTINKKVSPFLFEGDIFLSRRQAVDILKALSKDKTKRLRRSFVSDKTATWKTMPIKYRFHESIDFYTISQIIAAIRFWEDSTCITFENVSDSPDGDYIEFFSGQGCYSMIGRNGGRQGISIGESCVKASFFVMGVIEHEIGHALGLWHEQSRPDALGYVTIERDFILPSYISDFLQRDDEIDTLGIPYDLGSVMHYGSTAFSVDQKSKTVVTRDSLYQQTIGQREKLSFYDVATINTAYCKDECKSEKTKCENGGYMRPSKCSECLCPDGLGGEKCEKNEDSKNAECGGIIKLTEEWKEIESPNYPDPGYEADQKCSWLLKAEKGKRVEIEFIEDFSFLCTSTCVDFVELKISDDLRNTGFRFCCYDKPEISFVSQTDTAIIIFRSQLSTDIGFKIQAKSNELIIKTFKNSQKTKMQILFPKLSLKNNSADAEPRTTIAPTIITTTLAPITVDAPNVWADWGEWSMCSRTCGGCGIRSRVRSCRSKKCEGRRQEFGTCNLKACPVDKHCAKLLSNNRLCNGKVCTKNDIAISSCDAPQCCPPFINVDGVCQSDQENQHDELWLSI | not soluble
MRLITFAGHYFSRIIIMINRALVRSRVLQQAYVYYHRDDADIQSAEKELLNSLEQTYDLYLYYLLLVPELTRLHAEALEANKNKHLATEKDKNPNLRMVRNRLAEKIESCRPLWVRAEQNALNWRSEEAFLRRLLKKIHLSETFTRYMRSDATDDFEADRLFWNELMRDIILPDEELAEVMEEQSIFWDNQIQLIEKIETEEAPDIEEVEQSVRQAVADGNYQTIRQENAPIEIVKEFVLKTIRRIEQDTDPSAILLPAYKEKDDAVFGTTLLRNAIINGQEYRH | not soluble
MRLKKLYLKGFKSFGRPSLIGFSDRVTAIVGPNGSGKSNIIDAIKWVFGEQSKKELRASEKFDMIFAGSENLPPAGSAYVELVFEENGEEITVARELKRTGENTYYLNGSPVRLKDIRDRFAGTGLGVDFYSIVGQGQIDRIVNASPEELRLESSKHPTSLVPRGSYQRVNESFNRFISLLFFGGEGRLNIVSEAKSILDAGFEISIRKPGRRDQKLSLLSGGEKALVGLALLFALMEIKPSPFYVLDEVDSPLDDYNAERFKRLLKENSKHTQFIVITHNKIVMEAADLLHGVTMVNGVSAIVPVEVEKILEVGSHHHHHH | soluble
MRLRAILASLALALTSLGAQAETIRVAIGTQDTTINCAAGGLLIRELGLLEKYLPRDGRYKDADYRVEWKNFTSGAPLTNEMVAGKLDFGAMADFPGTFNGVAFAAAGKRSLFISVLSGSTRGSGNGIVVPSGSPVQSLAELKGQTISVPFASTAHGMLLRAVAAQGWDPQRDVTIIAQPPEIAGSALQANKIAAHADFVPFAELFPNRGFARKIYDGSQANAPTFHGALVDAAYAERYPEVVVAYLRASIEANRLLAAEPEKYSELIEKVTGIEAEVNYLFHGPLGLQTRDQAWKPEYRQALATSIDTLKLLKKADRGLDVERFVDDRYIREAYRQAGLDYQAALADYAPSPLRASDARSGRPIEEFERVAQIWVKGEARVRHYASPESALADLAELKAQGKAIRAIYAQDRDSGIKLLANQAWFVRDGEGRLNAFLLREQAQDYARRHGGEVRDFAAASQQALALR | not soluble
MRLRHLSDPDSLPALDKSFAIERPALGLAPDAPPVRILLLYGSLRARSFSRLAVEEAARLLQFFGAETRIFDPSDLPLPDQVQSDDHPAVKELRALSEWSEGQVWCSPERHGQITSVMKAQIDHLPLEMAGIRPTQGRTLAVMQVSGGSQSFNAVNTLRLLGRWMRMFTIPNQSSIAKAFQEFDAAGRMKPSPYYDRIADVMEELVRFTALVRPHREALTDRYSERKAAGHVIDEATDLSSIAIAPQPLPESETS | soluble
MRLSEAWAERKKNLSCQRGGHGAIITSITSFSEDFMTTMPAAEPVDAAERRAISPVVVYPNGTLEAPDLARLVQAKNGMEKIDEVIIPPRGGRTFTVPKGHFFRIVSIEGPQVGDLNLWNAHDLNERFFSGKTRALHATHVSVGNRLWSNLPSLRPMATITHDTLSWYGFDEDGGGVHDVIGTRCDPYTNKLLSGGDYHHCCHSNLTNALASARGLSFREAEPHVHDVLNVFMCTGFTRDTHQYFMKASPVRPGDYLELFAEIDLIGALSACPGGDCSATHSSDMAACYPLKVEIFRPDMAVLVGWPWPDRNAYRPVELEHHHHHH | not soluble
MRLSILLLVAAHVANGLFGFGEKKTTQAPKISLGSEISIPHTDEDQDTGEIVIPFNDPSTTTTRRRTATTTGIPVISVGGIGLDRTRSTVDVRSFTTTINPRFTAATKRLPSSDRHSSSGCPNRIDAYTFGPDSDYAFYEQQVFKISNNRISDRTTLVEEFKDGPNQVNGALYDPEREILWLVDGRSVYGYKKDGSDNWKLQSVFPKELPSSIGFTPEAAVRWHNKHQLLLSNGGKFALYDEYWNKSLMTGRTESYFENLPDRVRGISTWNSQGHAHIYTQSLVFEYDSEMKKVTGDGVPLGDFWRC | not soluble
MRLSISLGESPCISSLKVRGFTASPQTPNLSISVIVTAFNRREYLRYALLSLKNQEADSFEVVVSKNFSDRVTDKFCSENGFINVTTDSSRSGERVYDALRSSHGDFILFLDDDDIFRRTKISRVSDVISKRNVAFYRNAIFPVTVDGVIATHYQPQMHDPLYLILERVSDVRLLHRHACDFNSSSMGISRSMLDSHASDLRKINLAVDTFYFALAASSRMPLFCDSMIESIYRIMPSSTSRDLRDFYLFSRFERSFLRRYVPDLERIAEIVEGSPAKPVIGRMLSLYKILQYVFEEDRVNLKPSPLDRVRFLLERPFPYSLLYSRIFRDAAMRSEFRRENRIVYGNADRRRRLEHHHHHH | soluble
MRLWVLTLVQAHFAILAVADTTVAVEETTKAANETTTPDGPHADCFLCAPTVQCGETVEGDYSSGEVNVLLMKPMEDNDYFIVKGEVFPNAMKIFIDIYKDLSVGKAQEGGNNQPRLLTFEHYFDTNLTFSRSNLHGEGVPDSFREATLPDAIKQKKPWTLMFKMKDGLSAFETGDETGWFNNDIPWNGTATTQSFNIRGGWKTTSIQ | not soluble
MRMEAGEAAPPAGAGGRATGGWGKWVRLNVGGTVFLTTRQTLCREQKSFLSRLCQGEELQSDRDETGAYLIDRDPTYFGPILNFLRHGKLVLDKDMAEEGVLEEAEFYNIGPLIRIIKDRMEEKDYTVTQVPPKHVYRVLQCQEEELTQMVSTMSDGWRFEQLVNIGSSYNYGSEDQAEFLCVVSKELHSTPNGLSSESSRKTKSTEEQLEEQQQQEEEVEEVEVEQVQVEADAQEKGAANPQEDDC | soluble
MRMVDIISKKRDGKALSTEEIQFFIDGYTNGEIPDYQASALAMAIFFQDMNDQERADLTMAMVGSGDTIDLSEIEGIKVDKHSTGGVGDTTTLVLAPLVAAVGVPVAKMSGRGLGHTGGTIDKLESIEGFHIELDKKDFIDLVNRDKVAVIGQSGNLTPADKKMYALRDVTGTVNSIPLIASSIMSKKIAAGADAIVLDVKTGAGAFMKTDEDAENLAHAMVRIGNNVGRNTMAVISDMSQPLGEAIGNALEVKEAIDTLKGQGPEDLTELVLVLGSQMVVLAKQAETLDEARAKLIEVIENGAALEKFKTFLSNQGGDASIVDHPEKLPQAKYQIEVPAKTSGFVSQIVADEIGIAAMILGAGRATKEDEINLAVGLMLRKKVGDAVKEGESLVTIFADQEDVENVKAKIYENIQISDHAIAPTLVHKVITE | not soluble
MRNICFVACMLFCLTSAVGKTPGNTRYLSIADSILSNVLNLYQTNDGLLTETYPVNPDQKITYLAGGTQQNGTLKASFLWPYSGMMSGCVALYKATGNKKYKKILEKRILPGMEQYWDNSRLPACYQSYPTKYGQHGRYYDDNIWIALDYCDYYQLTHKPASLEKAVALYQYIYSGWSDEIGGGIFWCEQQKEAKHTCSNAPSTVLGVKLYRLTKDAKYLEKAKETYAWTKKHLCDPTDHLYWDNINLKGKVSKEKYAYNSGQMIQAGVLLYEETGDEQYLRDAQQTAAGTDAFFRTKADKKDPTVKVHKDMAWFNVILFRGLKALYKIDKNPAYVNAMVENALHAWENYRDENGLLGRDWSGHNKEQYKWLLDNACLIEFFAEIAAALEHHHHHH | not soluble
MRNPKQTRGKQTKSKIINAAFELFSEKGYTGTSSNEIASRAEVAIGSFYSYFKDKKQLFIEVLKDYYDNISKISFSNINGTISNLDDFLYESIKIALKAHEYHPEFHREVNIMELADDDIKKLIVGYEKVKFDSFKKLVEPYKNEFKNLNFNEALFLIYTTIENTVHVITFSTDTNLNKETLIKELISMIKSYINA | not soluble
MRPCRTGREQMTDTTMQLLSQGTDHVKVPDFDILAEGKTLSGVAERLMSLSLTDNRGFEADQLTITLDDADGQLQLPPRGARLTVLIGWKGEPLTEKGTCRFNLSMQHPFQLSLSVF | not soluble
MRPPPFPKPAHPEEALALQRALAKKVRLAGSLEGVRRIAALDASHKRGRPLVAVALLYDLEKGPLHVATALLPEEALFPYVPGLLSFREAPAYLEALAALPEAPEALLVDGQGVAHPRGLGIASHLGVHLDLPSVGVAKRLLYGRPEAPLPEEKGAAVRLLAPDGRPLGYVYRSRTGVKPLYVSPGHRVGLEEALRFVRRLPTRFRLPEPLRLAHLEAGRALKALDAAALEHHHHHH | not soluble
MRPSAPNIWIWKVSNLASDPRETVSGEWYAARSNLSSAARLRHGGTLLLVLDAKDNHVITKAEIKAVEISHRVGTIPREIHFPDGSLFETSDNEGVDRLLGLYLPKRAGFVHRLEQFRPRLIGITAAAVLLAYGTYKLALPAVVELAVAMTPPIVPKIMSASTMQALDQTVFSASELPLEEQNAIRVQFSRIAAHAEGSPEDYKLNFRKGGYIGPNAFALPDGTLVLTDELVELAGGDRQMIIGVLAHEIGHVEYEHSLRQLYRAAGVAGLVMLIAGDVGSAMEDILTQGGGLLALSHSRDAERQADQRSVELMRKADLDPTAIERFFALLEEKLGDKGGTSIISTHPGTPQRRKAIIDYNASLDNKPAGNLEHHHHHH | not soluble
MRQIFPGLDPNTYVQHPLHSSERMWPETNCYIDLWIEVLASKGLSPEAMFGFTLTQDFEGDQFTFFKVPLEDLEALYGVRATELAIFDKVEDHIATQLERGRICLIEMDSFYMPDTHGVGYQKEHGKTTVAINRLDLEKRELDYFHNAGFFHLSGEDFDGLFQHHLAETDPPFLPYTEFAKFADSNPSPAHIRKTAERLLKFHFSRRPSANPVRAFAKVFPAQVEKVADRPFGFFHKYAFNTLRQLGANFELAASHLEWLDKQGFSDARDHALKISEVAKTVQFQLARAVTRRKFDALATVLDPAADAWDGLMESLGEKLSDASEAA | soluble
MRQPEDGNIRLWRYMDFSKFVALISSKSLFLNRVDRFTDPYEGHFSSLNNRLRNSIYEAKYAGSEIDPHKVASAIFDFNSFSRQWTYVNCWHANKYESAAMWDLYAKTEEAIAIETDYNSLAAVLPSEAQLGFVEYIDFDTEWMPENNATYPYLHKRKSFEHEKEVRIIVQEIPRAKSGVGFDREAVNDKHGISLDIDLNQLIKSIHVSPTAPKWLVDLTDTVSKTFGIDAHVKQSDLYKAPIK | soluble
MRRAILWFVALAIASVLAQQSRPASDPQVVEAARKEGRLIIYSSTDQSSAQALLDDFRKLYPFIQIEYNDLGTQAIYDRFVSETAAGASSADLLWSSAMELQVKLASEGYALPYDSPEAKNWPANARLGNLAYSTTLEPAVVVYNKRFLKPEEVPTTREGLARLLQEPRMRGRVATWDPERSAVGFTILKADYDRFPAFQELARAFGKAQAALYSSTGAAFEKVISGEHYLAYGFFGSYALLRQRTVKDLGIAYLTDGTVAIQRVAFINKRAAHPNAAKLFLDYLLSLRGQNLMAYTALIFARRETVVGEATPQALYKAVGGKDKVYAIPVSTEILKNLDPAERMRFLTFWRQAVRGQ | soluble

Source: the DeepSol protein solubility set
